From patent US20030077693A1
Blank lines part the entries; values can stand above or below the substance they belong to.

How the values were obtained:
[1] = target: p97 (melanotransferrin), GPI-anchored, on the cell surface (human) (UniProt P08582); test: cell-based or functional assay
[2] = target: p97 (melanotransferrin), GPI-anchored, on the cell surface (human) (UniProt P08582); test: FACS, SK-MEL-28 cells, L235 hybridoma supernatant + GAM IgG-FITC
[3] = target: p97 (melanotransferrin), GPI-anchored, on the cell surface (human) (UniProt P08582); test: FACS, SK-MEL-28 cells pre-incubated with PI-PLC (removes p97), L235 + GAM IgG-FITC
[4] = target: p97 (melanotransferrin), GPI-anchored, on the cell surface (human) (UniProt P08582); test: FACS, Sf9 cells infected with p97 recombinant virus p97 B-1-1, L235 + GAM IgG-FITC
[5] = target: p97 (melanotransferrin), GPI-anchored, on the cell surface (human) (UniProt P08582); test: FACS, Sf9 cells infected with p97 recombinant virus p97 B-2-1, L235 + GAM IgG-FITC
[6] = target: p97 (melanotransferrin), GPI-anchored, on the cell surface (human) (UniProt P08582); test: FACS, SK-MEL-28 cells after PI-PLC treatment, staining against untreated stained cells
[7] = target: p97 (melanotransferrin), GPI-anchored, on the cell surface (human) (UniProt P08582); test: FACS, p97aWTBc3 cells after PI-PLC treatment, staining against untreated stained cells
[8] = target: p97 (melanotransferrin), GPI-anchored, on the cell surface (human) (UniProt P08582); test: FACS, p97aWTBc7 cells after PI-PLC treatment, staining against untreated stained cells
[9] = target: p97 (melanotransferrin), GPI-anchored, on the cell surface (human) (UniProt P08582); test: FACS, Sf9 cells infected with p97 B-1-1, pre-incubated with PI-PLC, L235 + GAM IgG-FITC
[10] = target: p97 (melanotransferrin), GPI-anchored, on the cell surface (human) (UniProt P08582); test: FACS, Sf9 cells infected with p97 B-2-1, pre-incubated with PI-PLC, L235 + GAM IgG-FITC
[11] = target: p97 (melanotransferrin), GPI-anchored, on the cell surface (human) (UniProt P08582); test: FACS, SK-MEL-28 cells after Pronase treatment, staining against untreated stained cells
[12] = target: transferrin added to TRVb and TRVb-1 cells (30 µg/mL, Example 19) (UniProt P02787); test: Pandex cell fluorescence, plate 919, untreated TRVb-1 cells + Tf only, stained with L235 (specificity control)
Sequence of UniProt P02787 (P02787 20-698 limits assumed): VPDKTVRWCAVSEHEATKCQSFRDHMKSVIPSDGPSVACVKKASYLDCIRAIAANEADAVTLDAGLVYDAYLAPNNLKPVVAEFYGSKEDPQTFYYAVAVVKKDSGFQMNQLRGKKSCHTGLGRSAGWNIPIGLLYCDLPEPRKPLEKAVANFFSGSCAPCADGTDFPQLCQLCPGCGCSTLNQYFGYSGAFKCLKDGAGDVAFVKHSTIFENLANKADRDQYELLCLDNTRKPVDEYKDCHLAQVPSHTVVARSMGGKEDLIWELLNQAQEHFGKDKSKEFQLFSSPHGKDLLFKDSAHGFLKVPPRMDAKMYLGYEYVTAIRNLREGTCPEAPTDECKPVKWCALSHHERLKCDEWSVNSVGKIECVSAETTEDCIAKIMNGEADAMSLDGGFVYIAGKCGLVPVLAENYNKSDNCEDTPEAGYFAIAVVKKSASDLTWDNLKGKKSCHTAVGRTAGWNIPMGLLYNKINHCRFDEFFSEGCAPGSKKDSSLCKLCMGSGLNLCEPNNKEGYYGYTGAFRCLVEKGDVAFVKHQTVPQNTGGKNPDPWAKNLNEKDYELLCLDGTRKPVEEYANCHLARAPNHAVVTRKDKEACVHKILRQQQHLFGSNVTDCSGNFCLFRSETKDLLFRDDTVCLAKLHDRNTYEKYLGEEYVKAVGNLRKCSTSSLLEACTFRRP

[13] = target: transferrin added to TRVb and TRVb-1 cells (30 µg/mL, Example 19) (UniProt P02787); test: Pandex cell fluorescence, plate 919, acid washed TRVb-1 cells + Tf only, stained with L235 (specificity control)
[14] = target: transferrin added to TRVb and TRVb-1 cells (30 µg/mL, Example 19) (UniProt P02787); test: Pandex cell fluorescence, plate 925 (unlabelled Abs then GAM FITC), untreated TRVb-1 cells + Tf only, stained with L235 (specificity control)
[15] = target: transferrin added to TRVb and TRVb-1 cells (30 µg/mL, Example 19) (UniProt P02787); test: Pandex cell fluorescence, plate 925 (unlabelled Abs then GAM FITC), acid washed TRVb-1 cells + Tf only, stained with L235 (specificity control)
[16] = target: transferrin added to TRVb and TRVb-1 cells (30 µg/mL, Example 19) (UniProt P02787); test: Pandex cell fluorescence, plate 922 (FITC Abs pre-incubated with GAM FITC), untreated TRVb-1 cells + Tf only, stained with L235 (specificity control)
[17] = target: transferrin added to TRVb and TRVb-1 cells (30 µg/mL, Example 19) (UniProt P02787); test: Pandex cell fluorescence, plate 922 (FITC Abs pre-incubated with GAM FITC), acid washed TRVb-1 cells + Tf only, stained with L235 (specificity control)
[18] = target: human transferrin receptor on cells (human) (UniProt P02786); test: Pandex cell fluorescence, plate 911, untreated TRVb-1 cells, OKT9 then GAM FITC
Sequence of UniProt P02786 (P02786 whole entry): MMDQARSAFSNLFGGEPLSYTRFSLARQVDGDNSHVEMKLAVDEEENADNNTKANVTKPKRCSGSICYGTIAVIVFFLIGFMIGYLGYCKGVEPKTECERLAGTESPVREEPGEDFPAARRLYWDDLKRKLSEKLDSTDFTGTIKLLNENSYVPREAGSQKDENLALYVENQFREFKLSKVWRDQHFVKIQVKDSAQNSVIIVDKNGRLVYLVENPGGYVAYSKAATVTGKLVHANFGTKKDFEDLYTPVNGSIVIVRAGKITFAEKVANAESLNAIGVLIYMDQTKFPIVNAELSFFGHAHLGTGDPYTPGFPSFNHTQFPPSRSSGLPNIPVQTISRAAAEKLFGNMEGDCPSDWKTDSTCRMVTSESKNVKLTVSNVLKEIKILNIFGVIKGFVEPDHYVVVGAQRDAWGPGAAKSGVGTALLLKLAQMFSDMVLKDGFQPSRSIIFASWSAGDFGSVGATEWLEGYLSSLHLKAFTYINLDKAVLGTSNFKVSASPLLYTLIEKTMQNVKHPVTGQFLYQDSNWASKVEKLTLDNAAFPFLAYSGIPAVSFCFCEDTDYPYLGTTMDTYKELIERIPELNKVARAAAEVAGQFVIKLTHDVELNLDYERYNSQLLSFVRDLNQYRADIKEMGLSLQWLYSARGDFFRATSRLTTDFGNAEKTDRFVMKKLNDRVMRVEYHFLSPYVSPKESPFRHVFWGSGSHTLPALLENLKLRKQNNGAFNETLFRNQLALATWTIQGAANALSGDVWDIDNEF

[19] = target: human transferrin receptor on cells (human) (UniProt P02786); test: Pandex cell fluorescence, plate 919, untreated TRVb-1 cells, OKT9 then GAM FITC
[20] = target: human transferrin receptor on cells (human) (UniProt P02786); test: Pandex cell fluorescence, plate 911, acid washed TRVb-1 cells, OKT9 then GAM FITC
[21] = target: human transferrin receptor on cells (human) (UniProt P02786); test: Pandex cell fluorescence, plate 919, acid washed TRVb-1 cells, OKT9 then GAM FITC
[22] = target: human transferrin receptor on cells (human) (UniProt P02786); test: FACS, SK-MEL-28 cells after PI-PLC treatment, staining against untreated stained cells
[23] = target: human transferrin receptor on cells (human) (UniProt P02786); test: FACS, SK-MEL-28 cells after Pronase treatment, staining against untreated stained cells
[24] = target: Thy-1 on EL-4 mouse lymphoma cells (mouse) (UniProt P01831); test: FACS, EL-4 cells after PI-PLC treatment, staining against untreated stained cells
Sequence of UniProt P01831 (P01831 20-131): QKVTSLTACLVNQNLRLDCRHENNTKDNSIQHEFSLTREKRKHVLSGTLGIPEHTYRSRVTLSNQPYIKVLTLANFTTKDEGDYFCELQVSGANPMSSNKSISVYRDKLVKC

[25] = target: Thy-1 on EL-4 mouse lymphoma cells (mouse) (UniProt P01831); test: FACS, EL-4 cells after Pronase treatment, staining against untreated stained cells

Sequence of UniProt P08582 (P08582 20-709): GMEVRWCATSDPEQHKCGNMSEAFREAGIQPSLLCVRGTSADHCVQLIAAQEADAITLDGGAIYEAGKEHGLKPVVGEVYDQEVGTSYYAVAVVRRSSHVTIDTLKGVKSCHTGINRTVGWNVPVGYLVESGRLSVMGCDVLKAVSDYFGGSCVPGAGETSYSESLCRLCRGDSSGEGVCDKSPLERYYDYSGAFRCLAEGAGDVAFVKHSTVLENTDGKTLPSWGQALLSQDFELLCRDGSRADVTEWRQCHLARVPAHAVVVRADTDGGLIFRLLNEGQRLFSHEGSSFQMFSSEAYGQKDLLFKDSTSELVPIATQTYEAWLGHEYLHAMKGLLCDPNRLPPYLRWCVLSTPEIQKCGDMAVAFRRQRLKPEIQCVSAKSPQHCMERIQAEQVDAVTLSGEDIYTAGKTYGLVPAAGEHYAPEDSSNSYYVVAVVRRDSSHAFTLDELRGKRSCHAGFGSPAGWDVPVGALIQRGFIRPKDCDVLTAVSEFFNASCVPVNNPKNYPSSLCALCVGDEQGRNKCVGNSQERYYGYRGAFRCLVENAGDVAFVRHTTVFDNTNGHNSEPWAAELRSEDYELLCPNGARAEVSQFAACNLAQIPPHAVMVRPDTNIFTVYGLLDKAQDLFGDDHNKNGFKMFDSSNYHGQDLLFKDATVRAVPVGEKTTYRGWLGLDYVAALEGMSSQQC

- internalization of Fe from 59Fe-citrate by p97TRVb cells [1]: 31%
- FLUORESCENCE-converted linear value [2]: 128
- FLUORESCENCE-converted linear value [3]: 4.52
- FLUORESCENCE-converted linear value [4]: 112
- FLUORESCENCE-converted linear value [5]: 97.4
- Fluorescene Intensity (% of Control) [6]: 10.8 % of Control
- Fluorescene Intensity (% of Control) [7]: 6.8 % of Control
- Fluorescene Intensity (% of Control) [8]: 7.5 % of Control
- FLUORESCENCE-converted linear value [9]: 5.74
- FLUORESCENCE-converted linear value [10]: 6.85
- Fluorescene Intensity (% of Control) [11]: 82.6 % of Control
- fluorescence [12]: 5330
- fluorescence less control (TRVb) [12]: 0
- fluorescence [13]: 5320
- fluorescence less control (TRVb) [13]: 1120
- fluorescence [14]: 2520
- fluorescence less control (TRVb) [14]: 237
- fluorescence [15]: 2710
- fluorescence less control (TRVb) [15]: 758
- fluorescence [16]: 7440
- fluorescence less control (TRVb) [16]: 0
- fluorescence [17]: 6220
- fluorescence less control (TRVb) [17]: 107
Substance: L235 anti-p97 mouse monoclonal antibody

- fluorescence [18]: 4760
- fluorescence less control [18]: 3250
- fluorescence [19]: 13600
- fluorescence less control [19]: 11500
- fluorescence [20]: 7140
- fluorescence less control [20]: 5060
- fluorescence [21]: 12500
- fluorescence less control [21]: 10400
- Fluorescene Intensity (% of Control) [22]: 120 % of Control
- Fluorescene Intensity (% of Control) [23]: 15.9 % of Control
Substance: OKT9 anti-human transferrin receptor mouse monoclonal antibody

- Fluorescene Intensity (% of Control) [24]: 32.5 % of Control
- Fluorescene Intensity (% of Control) [25]: 136 % of Control
Substance: T24/37.1 MAb (anti-Thy-1) (antibody)
